Measured values from patent US20100190689.

What was measured:
Experiment in all cases: filter
[1] = tested on: T1, GST-MBNL1-41-del105 deletion of C-terminal 105 aa (all four zinc fingers kept) (Homo sapiens), Q9NR56-5; details: C-terminal deletion has no significant influence on binding; same buffer
T1 sequence: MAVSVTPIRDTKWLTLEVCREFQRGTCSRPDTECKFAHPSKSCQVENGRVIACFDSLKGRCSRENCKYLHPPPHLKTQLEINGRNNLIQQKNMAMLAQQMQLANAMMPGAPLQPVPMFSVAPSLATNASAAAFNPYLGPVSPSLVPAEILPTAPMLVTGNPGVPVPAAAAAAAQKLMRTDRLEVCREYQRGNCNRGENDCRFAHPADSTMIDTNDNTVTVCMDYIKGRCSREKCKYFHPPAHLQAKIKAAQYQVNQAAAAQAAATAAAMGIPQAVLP

[2] = biological target: T2, MBNL1-42 (Homo sapiens) (UniProt Q9NR56); details: stated collectively for 41 and 42 kD isoforms
T2 sequence: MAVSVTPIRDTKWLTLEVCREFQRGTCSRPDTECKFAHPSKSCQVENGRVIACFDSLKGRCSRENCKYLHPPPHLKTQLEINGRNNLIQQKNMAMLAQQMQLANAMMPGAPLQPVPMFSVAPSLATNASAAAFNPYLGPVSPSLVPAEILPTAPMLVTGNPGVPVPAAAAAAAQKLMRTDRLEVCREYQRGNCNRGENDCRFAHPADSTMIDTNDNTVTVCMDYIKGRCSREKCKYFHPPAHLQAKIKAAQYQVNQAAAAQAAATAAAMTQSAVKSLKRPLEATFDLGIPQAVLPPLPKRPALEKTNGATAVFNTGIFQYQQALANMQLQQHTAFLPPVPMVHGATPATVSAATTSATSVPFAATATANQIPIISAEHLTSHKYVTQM

[3] = tested on: T3, MBNL1-41 full length, GST cleaved (Homo sapiens), Q9NR56-5; details: nitrocellulose filter; 50 mM Tris pH 8.0, 50 mM NaCl, 50 mM KCl, 1 mM Mg, 0.1 mM DTT; value stated for all forms tested
T3 sequence: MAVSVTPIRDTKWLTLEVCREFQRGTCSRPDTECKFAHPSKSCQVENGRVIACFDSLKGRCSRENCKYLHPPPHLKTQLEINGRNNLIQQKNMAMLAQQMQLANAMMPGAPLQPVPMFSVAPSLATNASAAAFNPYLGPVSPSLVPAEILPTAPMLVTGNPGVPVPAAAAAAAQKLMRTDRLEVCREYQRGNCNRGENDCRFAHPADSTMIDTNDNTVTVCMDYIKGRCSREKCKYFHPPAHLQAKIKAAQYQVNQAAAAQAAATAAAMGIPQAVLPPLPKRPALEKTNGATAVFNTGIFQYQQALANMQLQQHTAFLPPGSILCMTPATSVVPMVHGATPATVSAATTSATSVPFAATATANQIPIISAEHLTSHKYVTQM

[4] = tested on: T4, GST-MBNL1-41 full length (Homo sapiens), Q9NR56-5; details: GST has no significant influence on binding; same buffer
T4 sequence: T3 sequence

Measured: Kd

CUG [poly(CUG)109]
10 nM: all assays above
